Assay results reported in FireProtDB (doi:10.1016/j.jmb.2008.02.039).

Conditions: Thermococcus kodakarensis (strain ATCC BAA-918 / JCM 12380 / KOD1); pH 9; 50 °C; GdnHCl; CD; Tris-HCl 20 mM; reversible: Yes; whole UniProt chain shown

B1: Ribonuclease HII wild type, O74035 (protein)
chain: MKIAGIDEAGRGPVIGPMVIAAVVVDENSLPKLEELKVRDSKKLTPKRREKLFNEILGVLDDYVILELPPDVIGSREGTLNEFEVENFAKALNSLKVKPDVIYADAADVDEERFARELGERLNFEAEVVAKHKADDIFPVVSAASILAKVTRDRAVEKLKEEYGEIGSGYPSDPRTRAFLENYYREHGEFPPIVRKGWKTLKKIAEKVESEKKAEERQATLDRYFRKV
denaturant m value: 5.64 kcal/mol/M | denaturant midpoint (higher = more stable): 1.85 M | unfolding free energy: 10.4 kcal/mol
